# Experimental data from patent US20130157934A1 (INDIANA UNIVERSITY RESEARCH AND TECHNOLOGY, published 2013).
# Read-outs that look alike come from different tables or passages of the source. Starred links: 1 amine or outer side, 2 acyl side, 3 side chain; linkers in the order of their positions; H or OH if unused. Positions of bridges follow the written chain, without caps; N, C: chain ends. Non-standard residues stand in square brackets, D forms with d. Groups on a side chain read outwards from the residue. No end group written: not given here. estradiol (3-ether, amide-linked) = estradiol attached through its 3-position ether, via an amide; PhLac = O=C(O)[C@@H](O)Cc1ccccc1; Suc = O=C(CCC(=O)[*:2])[*:1]; Aib = CC(C)(N)C(=O)O
# B1: [PLA6, E9, K12E16(Lactam)] glucagon(6-39) Cex peptide (peptide)
# peptide: XTSEYSKYLDERRAQDFVQWLMNTGPSSGAPPPS
# modifications: not fully specified; X1 = PLA (phenyl lactic acid in place of Phe 6 of glucagon); lactam bridge K12-E16 (glucagon numbering; residues 7 and 11 of this chain)
# B2: [PLA6, D9, E16, K20E24(Lactam), D28]G(6-29) (peptide)
# peptide: [PhLac]TSDYSKYLDERRAKDFVEWLMDT-NH2
# modifications: lactam 15-19; N-terminus assumed
# SMILES: CSCC[C@H](NC(=O)[C@H](CC(C)C)NC(=O)[C@H](Cc1c[nH]c2ccccc12)NC(=O)[C@@H]1CCC(=O)NCCCC[C@H](NC(=O)[C@H](C)NC(=O)[C@H](CCCNC(=N)N)NC(=O)[C@H](CCCNC(=N)N)NC(=O)[C@H](CCC(=O)O)NC(=O)[C@H](CC(=O)O)NC(=O)[C@H](CC(C)C)NC(=O)[C@H](Cc2ccc(O)cc2)NC(=O)[C@H](CCCCN)NC(=O)[C@H](CO)NC(=O)[C@H](Cc2ccc(O)cc2)NC(=O)[C@H](CC(=O)O)NC(=O)[C@H](CO)NC(=O)[C@@H](NC(=O)[C@@H](O)Cc2ccccc2)[C@@H](C)O)C(=O)N[C@@H](CC(=O)O)C(=O)N[C@@H](Cc2ccccc2)C(=O)N[C@@H](C(C)C)C(=O)N1)C(=O)N[C@@H](CC(=O)O)C(=O)N[C@H](C(N)=O)[C@@H](C)O
# B3: [PLA6, D9, E16, E24K28(lactam)]G(6~29) (peptide)
# peptide: [PhLac]TSDYSKYLDERRAQDFVEWLMKT-NH2
# modifications: lactam 19-23; N-terminus assumed
# SMILES: CSCC[C@@H]1NC(=O)[C@H](CC(C)C)NC(=O)[C@H](Cc2c[nH]c3ccccc23)NC(=O)[C@@H](NC(=O)[C@@H](NC(=O)[C@H](Cc2ccccc2)NC(=O)[C@H](CC(=O)O)NC(=O)[C@H](CCC(N)=O)NC(=O)[C@H](C)NC(=O)[C@H](CCCNC(=N)N)NC(=O)[C@H](CCCNC(=N)N)NC(=O)[C@H](CCC(=O)O)NC(=O)[C@H](CC(=O)O)NC(=O)[C@H](CC(C)C)NC(=O)[C@H](Cc2ccc(O)cc2)NC(=O)[C@H](CCCCN)NC(=O)[C@H](CO)NC(=O)[C@H](Cc2ccc(O)cc2)NC(=O)[C@H](CC(=O)O)NC(=O)[C@H](CO)NC(=O)[C@@H](NC(=O)[C@@H](O)Cc2ccccc2)[C@@H](C)O)C(C)C)CCC(=O)NCCCC[C@@H](C(=O)N[C@H](C(N)=O)[C@@H](C)O)NC1=O
# B4: [E9, E16K20(lactam), D28]G(4~29) (peptide)
# peptide: GTFTSEYSKYLDERRAKDFVQWLMDT-NH2
# modifications: lactam 13-17; N-terminus assumed
# SMILES: CSCC[C@H](NC(=O)[C@H](CC(C)C)NC(=O)[C@H](Cc1c[nH]c2ccccc12)NC(=O)[C@H](CCC(N)=O)NC(=O)[C@@H](NC(=O)[C@H](Cc1ccccc1)NC(=O)[C@H](CC(=O)O)NC(=O)[C@@H]1CCCCNC(=O)CC[C@H](NC(=O)[C@H](CC(=O)O)NC(=O)[C@H](CC(C)C)NC(=O)[C@H](Cc2ccc(O)cc2)NC(=O)[C@H](CCCCN)NC(=O)[C@H](CO)NC(=O)[C@H](Cc2ccc(O)cc2)NC(=O)[C@H](CCC(=O)O)NC(=O)[C@H](CO)NC(=O)[C@@H](NC(=O)[C@H](Cc2ccccc2)NC(=O)[C@@H](NC(=O)CN)[C@@H](C)O)[C@@H](C)O)C(=O)N[C@@H](CCCNC(=N)N)C(=O)N[C@@H](CCCNC(=N)N)C(=O)N[C@@H](C)C(=O)N1)C(C)C)C(=O)N[C@@H](CC(=O)O)C(=O)N[C@H](C(N)=O)[C@@H](C)O
# B5: E9, K12E16(lactam) glucagon(6-39) Cex peptide (peptide)
# peptide: FTSEYSKYLDERRAQDFVQWLMNTGPSSGAPPPS-NH2
# modifications: lactam 7-11; N-terminus assumed
# SMILES: CSCC[C@H](NC(=O)[C@H](CC(C)C)NC(=O)[C@H](Cc1c[nH]c2ccccc12)NC(=O)[C@H](CCC(N)=O)NC(=O)[C@@H](NC(=O)[C@H](Cc1ccccc1)NC(=O)[C@H](CC(=O)O)NC(=O)[C@H](CCC(N)=O)NC(=O)[C@H](C)NC(=O)[C@H](CCCNC(=N)N)NC(=O)[C@H](CCCNC(=N)N)NC(=O)[C@@H]1CCC(=O)NCCCC[C@H](NC(=O)[C@H](CO)NC(=O)[C@H](Cc2ccc(O)cc2)NC(=O)[C@H](CCC(=O)O)NC(=O)[C@H](CO)NC(=O)[C@@H](NC(=O)[C@@H](N)Cc2ccccc2)[C@@H](C)O)C(=O)N[C@@H](Cc2ccc(O)cc2)C(=O)N[C@@H](CC(C)C)C(=O)N[C@@H](CC(=O)O)C(=O)N1)C(C)C)C(=O)N[C@@H](CC(N)=O)C(=O)N[C@H](C(=O)NCC(=O)N1CCC[C@H]1C(=O)N[C@@H](CO)C(=O)N[C@@H](CO)C(=O)NCC(=O)N[C@@H](C)C(=O)N1CCC[C@H]1C(=O)N1CCC[C@H]1C(=O)N1CCC[C@H]1C(=O)N[C@@H](CO)C(N)=O)[C@@H](C)O
# B6: [A2E3, E16K20(Lactam), D28]G(1~29) (peptide)
# peptide: HAEGTFTSEYSKYLDERRAKDFVQWLMDT-NH2
# modifications: lactam 16-20; N-terminus assumed
# SMILES: CSCC[C@H](NC(=O)[C@H](CC(C)C)NC(=O)[C@H](Cc1c[nH]c2ccccc12)NC(=O)[C@H](CCC(N)=O)NC(=O)[C@@H](NC(=O)[C@H](Cc1ccccc1)NC(=O)[C@H](CC(=O)O)NC(=O)[C@@H]1CCCCNC(=O)CC[C@H](NC(=O)[C@H](CC(=O)O)NC(=O)[C@H](CC(C)C)NC(=O)[C@H](Cc2ccc(O)cc2)NC(=O)[C@H](CCCCN)NC(=O)[C@H](CO)NC(=O)[C@H](Cc2ccc(O)cc2)NC(=O)[C@H](CCC(=O)O)NC(=O)[C@H](CO)NC(=O)[C@@H](NC(=O)[C@H](Cc2ccccc2)NC(=O)[C@@H](NC(=O)CNC(=O)[C@H](CCC(=O)O)NC(=O)[C@H](C)NC(=O)[C@@H](N)Cc2c[nH]cn2)[C@@H](C)O)[C@@H](C)O)C(=O)N[C@@H](CCCNC(=N)N)C(=O)N[C@@H](CCCNC(=N)N)C(=O)N[C@@H](C)C(=O)N1)C(C)C)C(=O)N[C@@H](CC(=O)O)C(=O)N[C@H](C(N)=O)[C@@H](C)O
# B7: E9, E16K20(lactam) glucagon(6-39) Cex peptide (peptide)
# peptide: FTSEYSKYLDERRAKDFVQWLMNTGPSSGAPPPS-NH2
# modifications: lactam 11-15; N-terminus assumed
# SMILES: CSCC[C@H](NC(=O)[C@H](CC(C)C)NC(=O)[C@H](Cc1c[nH]c2ccccc12)NC(=O)[C@H](CCC(N)=O)NC(=O)[C@@H](NC(=O)[C@H](Cc1ccccc1)NC(=O)[C@H](CC(=O)O)NC(=O)[C@@H]1CCCCNC(=O)CC[C@H](NC(=O)[C@H](CC(=O)O)NC(=O)[C@H](CC(C)C)NC(=O)[C@H](Cc2ccc(O)cc2)NC(=O)[C@H](CCCCN)NC(=O)[C@H](CO)NC(=O)[C@H](Cc2ccc(O)cc2)NC(=O)[C@H](CCC(=O)O)NC(=O)[C@H](CO)NC(=O)[C@@H](NC(=O)[C@@H](N)Cc2ccccc2)[C@@H](C)O)C(=O)N[C@@H](CCCNC(=N)N)C(=O)N[C@@H](CCCNC(=N)N)C(=O)N[C@@H](C)C(=O)N1)C(C)C)C(=O)N[C@@H](CC(N)=O)C(=O)N[C@H](C(=O)NCC(=O)N1CCC[C@H]1C(=O)N[C@@H](CO)C(=O)N[C@@H](CO)C(=O)NCC(=O)N[C@@H](C)C(=O)N1CCC[C@H]1C(=O)N1CCC[C@H]1C(=O)N1CCC[C@H]1C(=O)N[C@@H](CO)C(N)=O)[C@@H](C)O
# Tests used:
# Assay in all cases: cell-based or functional assay
# GLP-1 receptor [1] = biological target: GLP-1 receptor (UniProt P43220)
# Sequence of GLP-1 receptor (UniProt P43220) (P43220 24-463 limits assumed): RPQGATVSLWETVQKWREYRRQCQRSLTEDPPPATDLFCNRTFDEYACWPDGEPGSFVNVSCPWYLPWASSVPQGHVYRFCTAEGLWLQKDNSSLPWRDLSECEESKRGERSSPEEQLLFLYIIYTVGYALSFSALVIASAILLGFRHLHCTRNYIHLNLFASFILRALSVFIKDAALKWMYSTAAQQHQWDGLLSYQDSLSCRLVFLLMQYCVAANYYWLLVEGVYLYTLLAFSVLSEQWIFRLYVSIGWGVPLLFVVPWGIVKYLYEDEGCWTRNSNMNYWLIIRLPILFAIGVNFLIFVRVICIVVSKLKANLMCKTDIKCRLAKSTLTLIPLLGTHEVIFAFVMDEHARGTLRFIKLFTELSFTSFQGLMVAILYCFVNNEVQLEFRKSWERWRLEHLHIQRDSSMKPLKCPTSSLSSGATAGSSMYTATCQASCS
# glucagon receptor [2] = biological target: glucagon receptor (UniProt P47871)
# Sequence of glucagon receptor (UniProt P47871) (P47871 26-477 limits assumed): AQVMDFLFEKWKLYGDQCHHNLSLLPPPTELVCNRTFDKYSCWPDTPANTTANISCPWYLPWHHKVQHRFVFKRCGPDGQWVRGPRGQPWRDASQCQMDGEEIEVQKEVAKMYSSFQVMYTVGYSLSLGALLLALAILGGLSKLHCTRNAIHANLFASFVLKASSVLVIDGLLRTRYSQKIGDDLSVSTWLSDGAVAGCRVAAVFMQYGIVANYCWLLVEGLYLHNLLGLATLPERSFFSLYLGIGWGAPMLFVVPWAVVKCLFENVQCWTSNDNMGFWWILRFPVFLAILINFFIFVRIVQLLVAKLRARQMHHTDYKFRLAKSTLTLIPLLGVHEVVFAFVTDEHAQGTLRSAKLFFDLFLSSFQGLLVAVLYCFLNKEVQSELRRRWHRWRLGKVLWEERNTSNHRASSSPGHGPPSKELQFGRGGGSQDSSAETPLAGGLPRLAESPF
# glucagon receptor [3] = biological target: glucagon receptor (UniProt P47871); remark: listed apart in the source
# glucagon receptor [4] = biological target: T1, glucagon receptor (UniProt P47871 26-477, limits assumed)
# T1 sequence (P47871 26-477 limits assumed): as above
# GLP-1 receptor [5] = biological target: T2, GLP-1 receptor (UniProt P43220 24-463, limits assumed)
# Target sequence in this assay (P43220 24-463 limits assumed): as the sequence (P43220 24-463 limits assumed) above
# glucagon receptor [6] = biological target: T1, glucagon receptor; remark: listed apart in the source
# GLP-1 receptor [7] = biological target: T2, GLP-1 receptor; remark: listed apart in the source
# Target sequence in this assay (P43220 24-463 limits assumed): as above
# glucagon receptor [8] = biological target: T1, glucagon receptor; remark: listed apart in the source
# GLP-1 receptor [9] = biological target: T2, GLP-1 receptor; remark: listed apart in the source
# glucagon receptor [10] = biological target: T1, glucagon receptor; remark: listed apart in the source
# glucagon receptor [11] = biological target: T1, glucagon receptor; remark: listed apart in the source
# GLP-1 receptor [12] = biological target: T2, GLP-1 receptor; remark: listed apart in the source
# GLP-1 receptor [13] = biological target: T2, GLP-1 receptor; remark: listed apart in the source
# GLP-1 receptor [14] = biological target: T2, GLP-1 receptor; remark: listed apart in the source
# Target sequence in this assay (P43220 24-463 limits assumed): as above
binder,measurement,setting,value
B1,GLP-1 EC50,GLP-1 receptor [1],6 nM
same,Glucagon IC50,glucagon receptor [2],72 nM
same,Glu IC50,glucagon receptor [3],72 nM
"[PhLac]TSDYSKYLDERRAQDFVQWLMDT-NH2 (lactam 7-11; not fully specified) [[PLA6, D9, K12E16(Lactam), D28]G(6-29)]",Glucagon IC50,glucagon receptor [4],13 nM
same,GLP-1 EC50,GLP-1 receptor [5],21 nM
same,Glucagon IC50,glucagon receptor [6],63 nM
same,GLP-1 EC50,GLP-1 receptor [7],177 nM
B2,Glucagon IC50,glucagon receptor [6],74 nM
same,GLP-1 EC50,GLP-1 receptor [7],239 nM
B3,Glucagon IC50,glucagon receptor [6],22 nM
same,GLP-1 EC50,GLP-1 receptor [7],289 nM
"[PhLac]TSDYSKYLDERRAKDFVQWLMDT-NH2 (lactam 11-15) [[PLA6, D9, E16K20(lactam), D28]G(6-29)]",Glucagon IC50,glucagon receptor [8],6 nM
same,GLP-1 EC50,GLP-1 receptor [9],4 nM
same,Glucagon IC50,glucagon receptor [10],10 to 30 nM
"FTSEYSKYLDERRAQDFVQWLMNTGPSSGAPPPS-NH2 [E9, K12, E16 glucagon(6-39) Cex peptide]",Glucagon IC50,glucagon receptor [8],762 nM
same,Glu IC50,glucagon receptor [11],762 nM
B4,Glucagon IC50,glucagon receptor [10],10 to 30 nM
same,GLP-1 EC50,GLP-1 receptor [12],151 nM
B5,Glucagon IC50,glucagon receptor [8],2010 nM
same,GLP-1 EC50,GLP-1 receptor [9],63 nM
same,Glu IC50,glucagon receptor [11],2010 nM
same,GLP-1 EC50,GLP-1 receptor [13],63 nM
"AEGTFTSEYSKYLDERRAKDFVQWLMDT-NH2 (lactam 15-19) [[A2E3, E16K20(Lactam), D28]G(2~29)]",Glucagon IC50,glucagon receptor [10],63 nM
B6,Glucagon IC50,glucagon receptor [10],130 nM
same,GLP-1 EC50,GLP-1 receptor [12],0.2 nM
HSQGTFTSDYARYLDARRAREFIKWLVRGRG [ANK2 (Bayer peptide)],GLP-1 EC50,GLP-1 receptor [12],0.28 nM
B7,Glucagon IC50,glucagon receptor [8],42 nM
same,GLP-1 EC50,GLP-1 receptor [9],36 nM
same,Glu IC50,glucagon receptor [11],42 nM
same,GLP-1 EC50,GLP-1 receptor [13],36 nM
"FTSDYSKYLDERRAQDFVQWLMNTGPSSGAPPPS-NH2 (lactam 7-11; not fully specified) [D9, K12E16(Lactam) glucagon(6-39) Cex peptide]",Glucagon IC50,glucagon receptor [8],828 nM
same,GLP-1 EC50,GLP-1 receptor [9],18 nM
same,Glu IC50,glucagon receptor [11],828 nM
same,GLP-1 EC50,GLP-1 receptor [13],119 nM
[dA][Aib][dE]G[dT][dF][dT][dS][dD][dV][dS][dS][dY][dL][dE]G[dQ][dA][dA][dK][dE][dA][dI][dA][dW][dL][dV][dK]GG[dP][dS][dS]G[dA][dP][dP][dP][dS]K([Suc-estradiol])-NH2 [Inactive GLP-1 (d-amino acid containing)/Estrogen(3-ester)],"GLP-1 EC50 (cAMP induction, CRE-luciferase in HEK293 cells)",GLP-1 receptor [14],562 nM
"[dA][Aib][dE]G[dT][dF][dT][dS][dD][dV][dS][dS][dY][dL][dE]G[dQ][dA][dA][dK][dE][dA][dI][dA][dW][dL][dV][dK]GG[dP][dS][dS]G[dA][dP][dP][dP][dS]K(estradiol (3-ether, amide-linked))-NH2 [Inactive GLP-1 (d-amino acid containing)/Estrogen(3-ether)]","GLP-1 EC50 (cAMP induction, CRE-luciferase in HEK293 cells)",GLP-1 receptor [14],418 nM
